Source: the NTF2 design screens of Basanta et al. (2020)

test: protease stability score; higher = more stable; yeast display proteolysis, trypsin and chymotrypsin;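 also: relative to predicted unfolded state with 0 unfolded-like and 1 meaning tenfold more protease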

Sequence | protease stability score
DEHKELHERLLKMWLSIWETGDEERLRRNADPDTRFKHDFNGREETVVGRENVAKVLEDLRRELGIDHVHIRHFDVQGNYVDLTTELHFNGRIVNFHIIIRVVNGKLKEIHFELR | 1.26
DKLHHDARWMMERLYETLETGDFHSFLRLADPEVLLIINGQFLHGREEVERFYDEEREKFKGLTIKHLHIHRVEMQGDKVRVDSRIHHIINGVNVHNNVKLEFVAFDGRMHRLRIEEE | 1.24
SEEEKHWRKVINLLRRWHLTGDEHNLLELFDPNYRLHQGDKEIHGMELYIEIFERELKKVPNLKINFDSKHIEVQGEKARAETELDVNIDGRRIEFETRLYSIKFNGKWFVHSMEVK | 0.553
DEEEELMRSFLRLWFEAMITGDEHTLKELIDPDVRIEQGDKTHHGWEEFLRKFHKIKNMTIRHVELNHEHVQGDKIDLIITLHGHINGRHEELEVRLHARKVDGRWKMTRIHYQ | 2.66
SEEEYWAKEMAILLDIAWYTGDEERFEEYVDPNTRIDFDGRVFHGREFLHHFRERVDHMREVRSRIESVHKQGDKLRVHGHLIIQGVIDGVDTQQRFKVHFIMEKVDGRWIFREEIYK | 1.51
DETSREEEEHARLWTHAWLTGDEELFKKLADPHVKTEIDGRDLIGRDEMTRMFHDLLRELGVKHSTIEEIHIVNGRVEIRISIEVDGRPIKVRIHVEFFNGRVQRIQIRYE | 0.903
DNTEENTRTLLELLKRVWRTGDWSQLDKLLDPNARAEINGVELHGREKVVEVFREELERLGVEYTDSRVKDMKVQGDKAIIDLELETEQGDKTHMHDLHIETRKVDGRWFVEHIIVH | 1.75
SEEERDVRHVFEVFERSMNTGDEKKIEDRLDPNVRIIIGDKRVHGMHWVSKVIVEMRTHFILRRIRIIGDKADIDGELELRAEGHHIHTHVIIVVHKINGRWYIEEIEIR | 1.69
SESDEMAVEMLLRWVENLITGDEHTSQELLDPHVRIIFYIGDKEVHYHGWENAVEFWEEVVRRYDYFHIKFEEITVQGEKVRSKTRLTVIINGQEERYDTKLNAIVVNGRFKSVTIQYD | 0.876
TEDEKFVEEFTRLIMHSFRTGDWELFEHLLDPDTRIEQGDWERIGMEEAIRLLHKVVHEMRVTHTDLKSITVIDGRIEIDARVHLEFNGQSVTYTQLILSIKIDGRWVLKSVHFH | 1.87
SEDDDLIREFFEDWVKSVLTGDEDTIAKLADPHTRHEYGDKEHHGRDLVVEMLTFLYKHIRFEDVRLRHFDIQGNKIILHGKVEGKIDGRHRTFDVTIEVIKVNGQWLWHTIVIR | 1.89
DESEELVRRFLEERIQDLRTGNWERIHENLDPNVRLIVNGRIFHGREALHVFRRRVDHNEDEKIRDVRIQGDKAEVDMEVLGVVNGVRTNFEAKLIMTKFDGKWSVKEVQID | 1.75
DEDEEKAKEAWEDIVRDIETGNEESMEKMLDPNTRLVVGEKERHGWESASKFVRELRHRVDHVELRLKDSKLYNGRVELDGLLIENFNGVEVRHKMIVFILKINGRWHIESVIIH | 1.44
SEEDEIAEKILRLYLELFKTGDWRRFEELLDPNVRLEFNGRFYHGREEISRIMKEFHNKFKNVRIELTSFEVQGEKNIMRSSENINGVERETEIYLDIWNGRIQSLIIRVR | 2.25
SEDEEKATEMIEQLSRAILTGDEHTLHKLLDPRTRIVVNGRRIHGRELWLKFFRELRFHSDDMHIHSQEVQGDKAFFDVHWLGTRNINGVKEHSHTKTEVILLKYNGKWIVEELRYE | 2.17
DETHEMNEEFLRLLIHAWRTGDEDLLLHLADPNVKVNVGEFHHHGREKFSEWLKHIRFDDMRVHDMRIFDGVAHFITESDVTFNGRRRRVHVRIVVEKVNGKWRLKLFEEE | 2.66
SEEEKSAKIAVDLLLKSQLTGDEQTISELLDPNVRLDVNGREYHGREEYKKWFKHMVERADHMEIRLRHVHFYDGQVHVIGILIIRVNGKELRWEQILVVDKIDGRWLLSEFNFH | 2.63
SDLEMEMKRWMELWLRMFVTGDFRTFLHLADPEYKVSAEGVSSHGRDFHIKELLRWLKEIRIHDFHVKDMDVQGDKAHSDGRHNGIVDGRNRDVNVHNEIVTIDGRLRSVTIRLE | 0.534
DELEEISRRAQELSLRLFHTGDERSWERLVDPHAKLDVNGVDVHGRELVHKFFERNIRELGIKHIHLEHEEVQGNKVKLIMHINVNGVERRLVIIAEKIDGRWVLREHKEE | 0.464
SEEEHYMLKVAKLAVRNYFTGNEHVLDELFDPHTRQEVNGVENHGRETVRDFLREHLKHMRFHDFKIRDFKWQGDKAHTETETDVEIDGQRIPLRMEIIIIIIDGVPKSISLRLG | 1.05
DEDEETAREMVEHFLQILLTGDEHNLSRLMDPNARVQIGDKTLHGRVNFVKWIEELGLDRVDVQLRRSRVIGNKIHIHGEERFNGVTMESHVDAVKINGQWHIERVEHR | 0.629
SEHDEDLENAWRVIKHSTETGDEETSRELIDPNARIDINGKDLHGREEISRIFSEWRVHHIEIKHVEHVGNKVHIDGHEDINVDGRRMETRIELIITKINGKWLVHSIRYI | 0.53
DEEKELNRHLAELWLHWWFTGDEEVITEMADPEVRFEVDGRTFHGRETLSRMISEKKRDLGADHERLRDVKVIGDKVHIESVIHVNGRELEVHIIIVVYNGRLKELRVEVK | 1.04
DEEEEEWERIARRLVKAWLTGDEDLLSFLADPHVRLHVGDKHNHGREHVERHWKEYLDRVKNVRIHVHHVEIQGEKIIIHVEVEINGRTFNMRVIIIVINGRIKEIVIHIH | 0.635
DRERRHEEQLYRDLIHAWFTGDEEWLRKYADPHVRVEIGDKLRHGMEWLAKMREDVHRHLGIDHIHIHDHYFFDGRVHMDFRINIGDKHHNLHLHIVNVDGKVRSFRFEIH | 1.09

Sequence | protease stability score
DEDREHVERIVDILIHSFKTGDESFLENYLDPNARLEVGDKTHHGREEVKKLVIRWWHELGIKHVHVDKKTTIDGRIIIHLTILFNGRRFETELIWVIVDGVINKVDIRIQER | 1.45
EEDRRMVEDAIRIFLKSLRTGDEESLTRMVDPHVKYHQGEYHMHGREELVRYFAERWEELGVENINTDMRPTHIEFQGEKIIIMGRYHLHVNGRESHTRIEFIATKIDGQWRLHKIRFE | 1.53
DEDEEQLRKWTRLTWRDMITGNEDSLHRLFDPHTRLDIDGVDVHGMESVSRKISDEMKRFDHVDFHLHDMRIFNGRAHIDGRLRFHINGVHLERREVIVILKINGQWFNEQISYK | 0.196
DEEHHDLQEFFERLKRHWETGDWKEITKNFDPNVKERYGDFEVHGREEAIRKAKEMRYNDMDIRHRRVIDGRAYLHTEMDGNFDGRERRFEVEMIITKIDGVWRIKHVTFK | 1.06
SEDEHYVRHAIKLWMDSHLTGDEHTLTQLLDPNVRTDFNGREFHGREEASKWTKHLLERMGIKVSDVHLRRLDVQGDKAISHTELIIHFNGVDLSKEVHIDIMKVDGQWMIRDLTII | 0.613
DEEEELSTEVMEHVLELVLTGDEERLWKLFDPHVRLDIDGKHIIGRELVSKINKDRRRELRIHHVELKRFETQGEKVHSDIRVDGWIDGRRIDTDAHVIVVVVDGRLKSLRIIHH | 1.18
SEEDKEREEWLHLLKHSLETGDEQALSRMADPHVRLVVGDKELHGREDYERHWREFLERFPNVTTEVRLRRVEIYGDKIRIDTELRIHVGDKHHSLRVDLIMVKVDGRWFMKEIRIK | 1.21
DDSQDIAKTMVDIITKNSLTGDEENFEHLVDPDARLTVNGVELHGREDVVRWMKHARIHDTRVRHIRVQGNKIEVDSESRVDINGKENEMKFKLIFIKVNGQWHIRDIEIR | 2.13
SEENEHLHHLMRLVIEMFETGDEDRWYKLADPNTRMEVDGREFIGREEVIKFLRNLGVNHFWIDDVDIINGRAHIRSTLRFNGQERDLNINLHFVDGKLKREKWIIR | 0.841
DEDEHTIRELFKEFIIAQVTGDFERLHELLDPHARLEIDGVILHGREQWTKFMQHLLEYLGIKHVSFHLHHLDVQGEKVKLDSRVRLFFNGVHYEKRNIIIWRKFNGRWYLEESTIE | 1.48
SEEEEDIRRLEEMLTKNLLTGNEHKLRRLADPHVQIHINGVDIVGMEWMVQVRREMRVEHVDSRIDDVRVIGDKAEVDGTLIIVGEVDGQRTNETIRIHRVFEKVNGRWILHSETFI | 1.15
DHEEKKAKELLHLIVELLITGDEDTLSRLLDPNTRWIINGRHLHGMHVFEEWVRRLKEQYKGVTVHIEIEDSKVVGEKARSEIRLIINIGDKVHDIESRLEIVVIDGKMRSLRFEFK | 1.19
DEMEKWSEMALDLIAETVETGDEHTYRRNFDPHTRVNVNGRHLHGMEVWLKELHELGIDRIEMDMKDIRIQGDKAIIILTLIINGRFHHVSIVSVKIDGRWHLHSVKYD | 0.33
SEDEEHDHKLARWILELLHTGDEETFLDLMDPNTRVIIHVGDKRIHNHGREVVKRIQEQLEEDWGVSRVEIHIRRMTIIDGRVRIDGLLEYDGRRHEIHMIFVIINGKIHSEEQHIH | 1.46
DHREEEQKRLTEEFITALKTGDEERWKELLDPNVKMHINGKDVVGREIAAKDLLDHWKNLGIKHIITHRIELQGEKVRIDTEERFNGRSVKTTMIIIVINGRLESFEFHVH | 0.653
HEDYEDLDKLREHLLTAMKTGDWEVMYRNFDPHVRLLYNGKDTHGREDLRRLVEEMRTRDVRIIITREEIQGNKVFMHGTLEVDGNWNGVDRHIHREVTHIMVKIDGRWIVTVERIR | 0.899
SEMEDIAEEWAELILHLWHTGDEDKLWKLADPNTREHVNGRNLHGREEIVRIIVHEMVEMRIKFRPHDVRVQGDKVIIDGIKEIHIDGKEIRIRIEIVIVVINGRYHSSELTVH | 1.04
DKEEEDVKKFTDEFIHHYLTGDWEKIRELADPNVRLIVGDKTLHGRELFIDWLRDELRRIDHIEHHVHRMSVINGKVHIDAELRIYINGRLHQTRIEIHLVIIDGRMRMVELRFR | 2.13
SEEEEDIRKFLEDHHRAFATGDEKRLTELMDPNVRFDVNGVDRHGRELAVEMLHKQREEMGIDHLETIEMQDHEVYGDYIHLDVEVHIRVNGKRHILKRRILWLKINGRWTIKHEQLR | 0.464
DEDRESARWLFEIHSRVFETGDEDSLHRLFDPNARFDINGREVHGMDLWIHLLKHIRVSVKDMKIRRHKSVNGRLETDYDSTLSFHVGDKTIELEVRVILVSHKVNGRWEIKEEIVH | 1.24
DDFDRNIEKLMKDLLHNWRTGNEDEFLRLIDPNARLTVGDYESHGREEYARVLRELLEEMRLHQVHIRHVEYFDGQADIDIREDGFINGQRIILTTRIIVVKVNGRWVVKSHVIN | 0.967
DEEHEEYHRMFRVVEHAYRTGDWKTLSDYMDPNAKQTVGNKEYHGREQVDESLKRLGIKVTDVEDSKEDHINGRLVVRLDQHLEVNGRRIKIHVLIIIIKINGRWIITENMYIFH | 0.141
DEEEEHLRKIMEEMTRANETGDFESWARNADPDYQLNVGDKRKHGREDWQEDLKRVDHLRLEVRIRRMRDVDGRIEVVGDLIIFIKVGEYEFESHSKVIIYIIKINGRWFIKSIEFL | 1
NEDEESAERAVHLLRELIYTGDEDRMLKYADPNVKIVFNGVEMHGMDTFLRVFHRIKNLTIRRIHIDHIHLQGDKIELNVRMDTEFNGRHHDDSIHIRTLKVDGVWINHRTEYV | 1.04
SDEEKDAKRAIEIYLRMVETGDEETSKELMDPNVRMHVNGQDVHGRERVAKLFHELSRRIDHHEVRLDRWDVQGDKLIIHTEIIWRVNGVEIRRRTLIIMRKFNGRWYIEELNIE | 0.181
